Tested on: MS2 coat protein
Assay: apparent KD of MS2 coat protein; designed switch direction (-1 OFF switch, 1 ON switch): -1; higher = weaker reporter binding
Procedure, shortened: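 On Illumina chips, designed RNA switches with common flanks were made by stalled E. coli RNA polymerase. Titrations with SNAP-549-labelled MS2 coat protein, doubling from 0.7 or 1.5 nM to 3 µM, were done with no input, with 200 uM small-molecule ligand, or with an oligonucleotide input. Apparent KD is the median per design over clusters, from curve fits of normalised cluster fluorescence.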

[1] = input ligand: microRNA oligo, concentration not stated
[2] = Eterna round: R95, input ligand: microRNA oligo, concentration not stated
[3] = Eterna round: R95, input ligand: FMN 200 uM
[4] = Eterna round: R95, input ligand: none

Sequence	apparent KD of MS2 coat protein (input ligand: FMN 200 uM)	apparent KD of MS2 coat protein (input ligand: none)	further results
GCCUGGGCAGGAUAUACAUGAGGAUCACCCAUGUCUGUUGACCGAACUCCGGAUAUAUGUAGAAGGGUCGCAGA [Eternabot (L1) Solution 100] (Eterna round: R97, puzzle: Exclusion 3)	55.1 nM	49.8 nM	
ACAUGAGGAUCACCCAUGUGACCACGAUGGCUGAUGUAGAGCUAGGAUAUGUGUGAAUAUCUAUCACAGAAGGAGCUUGACUGG [Deportation 52 - Jieux - Exclusion NG 3] (Eterna round: R96, puzzle: Exclusion NG 3)	24.7 nM	25.7 nM	apparent KD of MS2 coat protein [1]: 18.3 nM
GCAGACGUAGUGAGGAUAUGCUCUACCUCGGUAGAGCAGAAGGCACAUGAGGAUCACCCAUGUGGCUCCUCAUU [Omei Ex4B B22] (Eterna round: R97, puzzle: Brourd's mod of Exclusion 4)	16.8 nM	15 nM	
UGGCUACAUGAGGAUCACCCAUGUCAGGAUAUGCCGUUAAAUUAACAUCAACAUACGGGUAGAAGGGACAGCGU [1st #6] (Eterna round: R97, puzzle: Exclusion 1)	43.5 nM	41.7 nM	
UGUGUCUCAGGAGGAUAUCUCUCGGUUGCCGUUAGAGAAGGCUUGAAACAUGAGGAUCACCCAUGUAAAUGGCCCGUCCUCCAA [Lalecetege] (Eterna round: R96, puzzle: Exclusion NG 1)	12.2 nM	14.1 nM	apparent KD of MS2 coat protein [1]: 11.3 nM
AGAUGGCGAGGAUAUACAUGAGGAUCACCCAUGUGAGAUAAAUAAGUGAGGAAGAAAAGUAGAAGGCGCUGUCA [Mat - Exclusion 3 - Mod of Salish D14] (puzzle: Exclusion 3)			apparent KD of MS2 coat protein [2]: 74.3 nM
UAAUUGUGAGGAUAUUCGUUUAACACGGAGACGUGUUGAACGGAGAAGGCACAUGAGGAUCACCCAUGUUCCUU [Mat - Exclusion 4 - JL Mod - D17] (Eterna round: R97, puzzle: Exclusion 4)	89.9 nM	19.3 nM	
AAACACUGAGGAUAUGCGUAACAACAAAGCCUCACGUGCCAACAUGAGGAUCACCCAUGUAGAAGGCAGUCCAA [Mod R3 Insanara 17 - Jieux - Exclusion 2] (Eterna round: R97, puzzle: Exclusion 2)	25.2 nM	25.1 nM	
AGUUGACGAGAAGGAUAUCCGAACCUUUAAAGAGGAGAAGGUCUAUCAACAUGAGGAUCACCCAUGUACAUCGCUCGGGUGUCC [Arenis] (Eterna round: R96, puzzle: Exclusion NG 1)			apparent KD of MS2 coat protein [1]: 54.7 nM
GAUCAUGCAGGAUAUACAUGAACCAUGAAAACAUGGUUUUCACAUGAGGAUCACCCAUGUAGAAGGGCAUGAUC [Omei Ex2 A7] (Eterna round: R97, puzzle: Exclusion 2)	183 nM	56.7 nM	
UUUUUCAGGCCAGAUCCUCACAUGAGGAUCACCCAUGUGCUCGUCUGUUUUCGCUCUGUCUUUUUUUUGGUGGUGCU [Level Boss var2-20] (puzzle: Sensor v3, turn-off variant 1)			apparent KD of MS2 coat protein [3]: 177 nM; apparent KD of MS2 coat protein [2]: 26.7 nM; apparent KD of MS2 coat protein [4]: 178 nM
AAUAACAGAGGAUAUACUAUUUUAUGUGUUUGUUAUUUUAAACAUGAGGAUCACCCAUGUAGAAGGCUGAUUAA [JMF 44] (Eterna round: R96, puzzle: Exclusion 2)	47.7 nM	42.7 nM	apparent KD of MS2 coat protein [1]: 34.3 nM
GUGUACAGAGGAUAUACUUAUGGAGUCACGAAAGUGGCUUCACAUGAGGAUCACCCAUGUAGAAGGCUGUACAC [Dot plot directed v11] (puzzle: Exclusion 2)			apparent KD of MS2 coat protein [2]: 23.7 nM
AGUACUAACACGACAGUGUUAGUACAAUAAGCUUGUGAAACAUGAGGAUCACCCAUGUCCUCAUAAGCUCGUCUUAU [salish99_TOv2_r3_031] (puzzle: Sensor v3, turn-off variant 2)			apparent KD of MS2 coat protein [3]: 18.8 nM; apparent KD of MS2 coat protein [2]: 867 nM; apparent KD of MS2 coat protein [4]: 15.2 nM
CUUUACAUGCUAAGAUCCUACAUGAGGAUCACCCAUGUGGUCCGGUGACGUGAGUCACCGGACUUAGCUCGUCUUGU [salish99_S_TOV1_R5_097] (Eterna round: R97, puzzle: Sensor, turn-off variant 1)	83.2 nM	119 nM	
ACUCGACAUGAGGAUCACCCAUGUGAGGAUAUGGCCUGUAUGGCGUGAGCUGGCUCAAUAAGAAGGCGCGUGGG [salish99_ex1_r4_051] (Eterna round: R97, puzzle: Exclusion 1)	235 nM	188 nM	
CAGUACUGAGGAUAUACAUGAGGAUCACCCAUGUGAGAAAUACUAGUGAGGUCGAUUAGUAGAAGGCAGUACUG [Mat - Exclusion 3 - Eli Mod - D31] (Eterna round: R97, puzzle: Exclusion 3)	761 nM	35.4 nM	

Sequence	apparent KD of MS2 coat protein (input ligand: FMN 200 uM)	apparent KD of MS2 coat protein (input ligand: none)	further results
CCAAGCUAAAUCAUUAACAACAUGAGGAUCACCCAUGUGUAAGCAAUUAUGUUUGGGCUCUUUAGUGCUCGUCUUAU [JR_STOV1_Sub043] (Eterna round: R97, puzzle: Sensor, turn-off variant 1)	15.7 nM	16.3 nM	
GUUUUCAGACGGAGAUCCUACAUGAGGAUCACCCAUGUCUCACAAGCUUUUUGCUCGUCUUAUUCUCCUCUGUUCUC [Elimod 41 - Jieux - Sensor, turn-off variant 1] (Eterna round: R97, puzzle: Sensor, turn-off variant 1)	23.8 nM	26.1 nM	
UGUUGUUACGUAGGAUAUUGCCAACAGGCAGUAGGAUAUGCGAAAGCAGAAGGACCGCCAACAGGCGAGAAGGACGGGUUAACA [pwkr exNG2 2xF7 2xFMN.11] (Eterna round: R96, puzzle: Exclusion NG 2)	286 nM	389 nM	apparent KD of MS2 coat protein [1]: 31.5 nM
AAAUAGUGAGGAUAUUAGUUGUACGUCAAUAGACGUAUAAGUGAGAAGGCACAUGAGGAUCACCCAUGUUCCAG [Omei Ex4 Mod of Mat's R95 mod of Omei v9] (Eterna round: R97, puzzle: Exclusion 4)	48.4 nM	22.2 nM	
GGUGCGUAUGUGAGGAUAUGCUGGUCCUUGGAUCGGCAGAAGGCACAUGAGGAUCACCCAUGUGGUGUCGUUCC [salish99_Bmod_ex4_100] (puzzle: Brourd's mod of Exclusion 4)			apparent KD of MS2 coat protein [2]: 114 nM
CGCGCCUGGGUCGAACGACACAUGAGGAUCACCCAUGUCAGAGGCGUAGAAUGCACAAGCUUUGACCUCGUUACGCU [Eternabot (L2) Solution 39] (Eterna round: R97, puzzle: Sensor, turn-off variant 1)	18 nM	18.5 nM	
GUACUGACAGGAUAUACAUGAGGAUCACCCAUGUCCUUAUGCUGACAAAAGUCAGCAAGUAGAAGGGUCUGUAC [Omei Ex3 Model Bachelor's Dilema v2] (Eterna round: R97, puzzle: Exclusion 3)	1270 nM	88.4 nM	
UUAAUUAAUUAAGCGCAAGAUCACAUGAGGAUCACCCAUGUAUAGGAUAUCAGCUCGUUUAGAGCUGAGAAGGAUACAUAGCGC [ExNG3/2-A2] (Eterna round: R96, puzzle: Exclusion NG 3)	738 nM	172 nM	apparent KD of MS2 coat protein [1]: 155 nM
GGUCAAGAACAGAUCCGCGCUGCCAUUGACCGCUCAUUUACAUGAGGAUCACCCAUGUUUUUUGCUCAUCUUGUUAC [Usdila] (puzzle: Sensor v3, turn-off variant 2)			apparent KD of MS2 coat protein [3]: 20.2 nM; apparent KD of MS2 coat protein [2]: 62.2 nM; apparent KD of MS2 coat protein [4]: 19.8 nM
AGCCUGUAAGUAGGAUAUAUGAUCAGGAAUGAAAUAGAAGGGCUUAGUGGACAUGAGGAUCACCCAUGUCAAUGGGUUCAUGCA [Edria] (Eterna round: R96, puzzle: Exclusion NG 1)	15 nM	22.5 nM	apparent KD of MS2 coat protein [1]: 16 nM
GUGUAGAGAGGAUAUACAUGAGGAUCACCCAUGUGAAUAAGAUAGAAUAAGAUAAAGUGUAGAAGGUUUAGUGU [Excluse me!!! 18 - Jieux - Exclusion 3] (puzzle: Exclusion 3)			apparent KD of MS2 coat protein [2]: 38.4 nM
GGGCUAGAAGGAGGAUAUUGAAGAUCCUCACGACAUGAGGAUCACCCAUGUGGUUUAGCAAGGGCCAAGAAGGCCUAUAGCCCA [Zasoan] (Eterna round: R96, puzzle: Exclusion NG 2)	111 nM	77.3 nM	apparent KD of MS2 coat protein [1]: 52.1 nM
UAAAAUCUAGGAUAUACAUGAGGAUCACCCAUGUUGCUCCCAGCUCGUGACCUCCAAUGUAGAAGGAGAACGAU [EX3 A.15] (Eterna round: R97, puzzle: Exclusion 3)	19.8 nM	20.1 nM	
GAAGUCGACUAGGAUAUUACAGGCUCAUGCCGUUGAGAAGGAGUGACAUGAGGAUCACCCAUGUCCUCAAGCGC [Eternabot (Original) Solution 48] (Eterna round: R97, puzzle: Exclusion 6)	20.3 nM	16.2 nM	
UACGAACUAGGAUAUGCAAUGGGCUCGCUUUCCUUCGAUAAACUUGAGGAUCACCCAAGUAGAAGGAGUUUGUA [Mod 38 - Jieux - Exclusion 2] (Eterna round: R97, puzzle: Exclusion 2)	40.8 nM	16.6 nM	
UUAUUAAGUGUGAGGAUAUGCUGGUCCUUGGAUCAGCAGAAGGCACAUGAGGAUCACCCAUGUAAUAUAUUUAU [JL bmx4 3.09] (puzzle: Brourd's mod of Exclusion 4)			apparent KD of MS2 coat protein [2]: 75.8 nM
AAUAACAGAGGAUAUACUGUUUUAUGUGUUUAUUGUUUUAAACAUGAGGAUCACCCAUGUAGAAGGCUGAAUAA [JMF 17] (puzzle: Exclusion 2)			apparent KD of MS2 coat protein [2]: 23.4 nM

Reference: the supplement of paper PMC9170038
